Source: the DeepSol protein solubility set

Experiment: soluble on expression in E. coli; label from the status in PepcDB or PDB records
In the case of “MQRKTFADAECPIARSLERVGEWWSILIMRDALQGLRRFDEFSRSLDIAPNMLTRRLNALVEAGLLERQPYSQRPLRYQYVPTAKGEDFRVVLMAFVAWGNRHYAEEGQSVQLVERTSGRPVRSFMAALADGRTVPLEQCTVQAGPAASEEMRQRLAAMPERSELPAR”, the “soluble on expression in E. coli” value is reported as “not soluble”.
In the case of “MGSDKIHHHHHHMFAITGITGQVGGVVARALLAAGKDVRAVVRSAAKGAQWKEQGCEIAVAEMSDTQALSGAFSGVDGVFILLPPNFDPSPDFAESRHLVGTLRDALKQANPPKVVCLSTIGAQAAQPNLLQQLGYMEQQLGSLPMPIAFLRAGWFIENAAWDVEPARTAGVIPSFLQPLDKPVPMVATADVGRVAASMLQQAWTGKRIVELEGPRRITPNDLANTFARLLGKDVRMETVPRDTWEALFKSQGMKNPVPRMQMLDGFNEGWIEFETPDQTIKGNVTLETVLQSLIERVG”, the “soluble on expression in E. coli” value is reported as “not soluble”.
For “MAGDPMKKLAFAITATSGAAAFLTHHDAQASTQHTVQSGESLWSIAQKYNTSVESIKQNNQLDNNLVFPGQVISVGGSDAQNSSNTSPQAGSASSHTVQAGESLNIIASRYGVSVDQLMAANNLRGYLIMPNQTLQIPNGGSGGTTPTATTGSNGNASSFNHQNLYTAGQCTWYVFDRRAQAGSPISTYWSDAKYWAGNAANDGYQVNNTPSVGSIMQSTPGPYGHVAYVERVNGDGSILISEMNYTYGPYNMNYRTIPASEVSSYAFIHLEHHHHHH”, the “soluble on expression in E. coli” value was “not soluble”.
In the case of “MNNIPVEIRLLKNRTVLVLTYGDEPKNLPAEFLRVYSPSAEVRGHGVGQDVLQTGKADVQIADLQPVGQYALKISFSDGHDSGLYDWAYLHRLAYGYDAMWQEYLDKLAAAGASRFEEK”, the “soluble on expression in E. coli” value is reported as “not soluble”.
With “MAFLSQLQGGFAQLKQKAEAAAPSIADSLNQLKEAPKFMESAFKTGLNKVKLDSLGKVLNVPSLGRTQSPIDIVPVITAFGEHLQNAHFEVTYESTGEFKAVNDGNSIWLMREGNSSELAISFLPEEQYHLDAVNFHWATEPMNGSEHTIGGVGYAGEMHLIHRNTRFATMADALKQPNGVIAIAVFLNESHDDNAVFSPLINLLPQVIYKGSECKLCSFDFQTFFPVAEKTKEFWMYEGSETTDPFRETVNWIVIRAALPISSHQLDKLREVRAGRYDEEFSDKVPMKPLRPIQNPSSRTIQSSFRSVAGAPDLGFRQ” the “soluble on expression in E. coli” value was “not soluble”.
For “MGSDKIHHHHHHMNTRDLDYFRALVDCQNYTMVAKQFAVSQPAVTQAIHRLEKEFAVKLVIQDRRHQQTNITRAGQLLYKNARQIQASLQLAHREIQSTLQTDIRFGLPPIIGTLYFPQIAEKLLQNGLLQQLKITETGSDELLRKLVHGEINIALLGSYLPFDLPTVRAVHLGARPFSIIVSPQNSLAKQAAVSFKNLGQAQFIGLDGKYVHPQAFRAYCDFAGVHPEVIYRTPDISWVKALVKANLGISLLVRDVVKADDGVVCLEIKDQLPVSFNISVVTRAGYLPTTDEQRFIDQLLKMKI”, the “soluble on expression in E. coli” value was “not soluble”.
With “MVITDTAAWVQSQSRSIVDFISAPNSNSSLPPYVQIGAAAAVTMGLGYYLSKSSSSTSGSYSFSGVTYSGNVKPLVDPMNQSRILPDGSRISAYLKDDELQAFLFEDARTLYQGVRRGARLSNNGPMLGRRVKQSDGSIPYVWESYNTILERADNVSVAFRELGVPTGNAENIGIYSKNRAEWIITEFATYNYSNVIVPIYETLGSEASIFILNQAEIKIVVCDDISKATGLLKFKEQCPSLSTLVVMEPVTDELKTTASSLGVEVLTFEDLEKIGKNAKTRPAHIPPTPEDLATICYTSGTTGTPKGVMLTHANVIADGVCMDFFKHSGIAATDSMISFLPLAHMLERVIESVCFCVGAKVGFYRGDIRVLAEDIKELKPTVVPVVPRVLNRLYDKVMSEVNKSTLKKMLFDFAISYKARDMANFNIRNDGFFDNLVFKKIREGFGGRVRLMITGSAPLSTNVLTFVRAAMGCVVVEGYGQTECVAACTVSMEGDSLAGHVGMVIPSCQIKLVDVPELNYYAKDQAGEVCVKGHIIFKGYYKNEQQTKETIDEDGWLHTGDIGRWTPEGTLKIVDRKKHIFKLSQGEYVAPEKIENIYVRSKYVAQSFVHGESLKTCLIAIVVPDAEVLVPAMADQGIKGTFEELCNNDAVKKAILDDMVAVGKKAGLFSFEQVRDISLSAEQFSVENDLLTPTLKSKRPKLKAHYSKQLDAMYSKLP” the “soluble on expression in E. coli” value was “not soluble”.
In the case of “GMEPSAKHLQLQTLLSERHAYLMEGNREAMHQLLSSDFSFIDGQGRQFDAETYLDHYVDPDQIQWSNQISESMVVEVFETTALVQEIVEDHFSYGRSMYIGRFRSVSLYHWANEGWKWHFHQLTPLDPS”, the “soluble on expression in E. coli” value is reported as “soluble”.
For “MVITKIVGHIDDLSHQIKKVDWLEVEWEDLNKRILRKETENGTDIAIKLENSGTLRYGDVLYESDDTLIAIRTKLEKVYVIKPQTMQEMGKMAFEIGNRHTMCIIEDDEILVRYDKTLEKLIDEVGVSYEQSERRFKEPFKYRGHQH”, the “soluble on expression in E. coli” value was “soluble”.
With “MSTIHEFPKNYERFIAQGEEALVEHNQIAALENFQQAYQLQQTPPVNQKIVQLLLEMGEADEALALAEAFQESYFENLETAAIYMQIYSQSRRFIEGYILLKQLLQTKKITLAQQKTLEQQLMQVEEAYQQLETQQIQAIKRNLLVSDQLPVYQQLANIKTSLYLPKPVFVEVAKDLVMNQALSYFAREWFIEELALLQFSEPLTFLWYDNQPQTVLLEGKTGPLNTPIYSEICTELRNRLENDDPIMLQHLEEEIRLHLAYLYPLAETVISDPTIWVLGYLATYYPEYIEKELTEAKGHQIDAVQKVQQAIRTAFTQIML” the “soluble on expression in E. coli” value was “soluble”.
With “MFFESCKSILYSDTLVPDIFITEYMPLLSSDSVKVYLYSLFLSKHNKKASTEEFAKSMGLEISTVKECLAQLESMGVLTWKEDGLVLHDLKEKEINKMYRLKTTSTPEEVASNCEKNKKRNEIIYTINNTFFQGVMSPSWYTDIDAWFDRYKFDEDVMLALFQYCFDHKGLIKPYIEKVAESWKNRNIRNAFDLDNYSIQYKKFKDVRSAIVKKLKLGRNLTEYEEAYVEKWVMDYNYDFDIIELALKKTTSKTNPNFDYLDSIITDWHNNNFKTKEEIMSYEAARKKKNSRTSSVSASVIVPQKGNFEQRKYEDEYLNSLYENA” the “soluble on expression in E. coli” value was “not soluble”.
In the case of “LTKRVQEAQAMTEGERRKLSSVLAYMTDGVIATDRRGKVILINTPAEKMLRVKHESANGRSIIDVLDIGDTYQFEDLMEVDGSLTMDRSTLDKPYVLRANFSVIQRETGFNNGVIAVLHDIT”, the “soluble on expression in E. coli” value is reported as “not soluble”.
For “MLVAGAGALCLTLSGCAGAGSLGASDQTITIAMVSNSQMQDAQKLASQFEEENPDIDLKFVTLSENQARAKITASTATGGGEFDVVMISNYETPQWAKYGWLKNLSEYAEATEGYDEADFIPTLRESLSYEGNMYSVPFYGESSFLMYRKDLFEQAGITLSEKPTWTEVATAAKQLDSEDMAGICLRGKPGWGELLAPLDTVINTFGGRWFDEDWNAQLTSPEVERAVQFYVDLVREYGEPGAATSGFGECATQLAQGQVAMWYDSTSAVSTLEDPASSAVVGKIGYAPAPIEVKDNSGWLYSWSLGIPESSENPDAAWKFISWMTDKQYIRTVGEDLGWERVPPGSRLSTYEIPEYKEASAAYGPLTLEAIEDATPNAPTVQPVPYTGVQFLAIPEFQDLGTRVSQQISAAIAGQQTVPEALAQAQQYAEVVGATYREDR”, the “soluble on expression in E. coli” value was “not soluble”.
For “MAGYALKRLMTEYKELTTRPPEGIIAAPIDEDNFFEWECLITGPEETCFANGVFPARITFPQDYPLSPPKMRFTCGIFHPNIYADGRVCISILHAPGDDPTGYELSNERWSPVQSIEKILLSVVSMLAEPNDESPANVSAAKMWREDRAQFEKIADSLVRKTLCLPASEV”, the “soluble on expression in E. coli” value was “not soluble”.
For “MAHHHHHHMKQRTNVALKRWYASERTKKANPLILISNSHNIHFNLSLENFLLNNYSDLLKHLNGNSIERYDDPVLFLWRNNRSIIIGKNQNIWSECNLENIKEDNVLVARRFTGGGAVYHDLQNLCFTFLNNSLSTDDNFSIILKTLKRHFAIEAKRQGRNDITVNDRKCSGSAFKKMKNGFLHHGTIMVNLEKDVLSRYLTPDKIKYTKHGVSSVNARTINLKEINPKITCQDLCYALIKEFQAFYKNGVPNEGGEASCSATLKVEDYTGGEKIANPPEQVSSNRNANLSEGEKSVANLIDHSSPILKHFNIHYVDTNESITKNPEFLKYLNLLKDWDWCYGKSPKFQNRLCKQFPFGKFEVFFNVSDGMIKDGNVFSDCLDINLVEQLKFIFNNDVRYSKDSVASFLRGLQVENEGSLREVTDWILQEL”, the “soluble on expression in E. coli” value was “not soluble”.
With “MGSDKIHHHHHHMLSRTADHLYWMARYIERAENMARVLDVTYNMSLVPNASQSETTLWEPALQIAGGVDSYRQEYGEVTAGGVVRFLAMDTKNPSSIYSTLRSARENARSVRVTLSAETWENINALWLEFSQFVGMDLMQKGLGEFCDWVKSRSHLFRGVSFGTMLRDDAFRFLRLGTFIERADNTARLLDVKYHLLLPSGEEVGGAVDYYEWSAILRAVSAFHAYQKVFNDAIEPWKVAELLVLREDMPRSLHACFSEITPILDQLNGRHSSECRRLAGELHARLRYGRMTDIFQGGLHEFLTDFITSNNNLGAEIQRTFLNAPINGLAAETE” the “soluble on expression in E. coli” value was “not soluble”.
With “MSLSHRPVINASVSPKGTLETLSQREVQQLSETANGKTYQLFRQCAPAILNTGAHSDNAKTILDAYKDFEVRIHQQDRGVRLELINAPADAFVDGEMIASTREMLFSALRDIVYTQSGLDSQHVDLDSSQGLTDYVFQLLRNARTLRPGVEPKIVVCWGGHSISSEEYKYTKRVGHELGLRSLDVCTGCGPGVMKGPMKGATISHAKQRIVGGRYLGLTEPGIIAAEAPNPIVNELVILPDIEKRLEAFVRVGHGVIIFPGGAGTAEEFLYLLGILMHPDNQDLPFPVILTGPRSAEAYLQQLHEFVGATLGHAAQRHYRIVIDDPAEVAKQMAQGLKEVKQFRRERNDAFHFNWMLKIDESFQRPFEPTHENMASLQLSRSLPPHELAANLRRAFSGIVAGNVKDNGIRMIEQYGPYEIHGDPAVMLPLDRLLQAFVKQHRMKLPGGAAYVPCYRVVQTEAAEGHHHHHH” the “soluble on expression in E. coli” value was “soluble”.
For “MGSDKIHHHHHHMHIADITMFYAPASGGVRTYLEAKRNRLAKLPGVTSSLLVPGAYHRSHGSIHEVPAPPLPFSQGYRFPLKRRGWQRELHRLAPDLIEAGDPYVTAWAALDAGRALDVPVVGFYHSDLPRLIGNRLGNWTRAALDRYVRNLYGHCDRVLAPSRVIADRLQTLGLDNVAVQPLGVDLTTFSPQRRQFAFRQRLGLDDDTRLLIFVGRGSREKNLSVLLDTARHLGKGYHLVLIGPQMPQRVPDNVSVIGRYTATADVADWLASSDILLHAGTQETFGLVALEAMASGIPVVAARAGALAENVPLGCGRLCEPHSAQDMARAVRELCADAPEEQGRRARQHVERHHDWDIVVSSLMHHYRELTGQRVNTESLQHG”, the “soluble on expression in E. coli” value was “not soluble”.
In the case of “MTKENTKSIADDGPYSGSFYGLAEDNANHGIFSSILKRKKRQQDKLSEDVKKRCGRVESYKSCCDRLHQALMYMLVENAVTSKQLVTGARTEPHYRYAGQYLKTYEIIANQGRDKTKYESLEPAIKALLTLDSEHEKKVRKQLENLKPLTKFIGEDYWEYVRLKKVYAESVDGYDEAVVLQNKGKTEDAETAATNAQTWMNDCRTKLMDFITVSISQQKAKHADCVLKFRDESVSYHKIMADSITTPEPAEGKSVVKTLKQ”, the “soluble on expression in E. coli” value is reported as “not soluble”.
For “MESFQTIVDNEVLMESCGIQQESKIKNFPWAVSFTVDGVNRLGGSIISPYHIITAAHGFITTIGSRGNLCENKNWKKPNSSIYRSIKFLRDTRKVAYGGTCIRGHTDKYPNDPRCKKSDVIHNKVRAVLVDGEFASSNCLKGHDWAIVEVEKRIHFSENVRPICLPRPNMYYTKSLAVPGWGRIFNESGPLIHEIPMRIDRDCKRPWSDRLPADADDFICATSMNVSNYSAPRTCHGDSGGGLEYRDDNYGRAFLIAITSFGTRGCPSNMLARFTRVDMYLNLICNYTGVCY”, the “soluble on expression in E. coli” value was “not soluble”.
